Reference: US20220372137A1 (OXFORD BIOTHERAPEUTICS, published 2022)

Legend:
[1] = target: T1, Antigen flowed over the chip in the Biacore experiment (SLAMF6, construct not stated) (Homo sapiens (Human), UniProt Q96DU3 22-226, limits assumed); assay: SPR, Biacore T-200 at 25 °C; antibody captured on goat anti-human IgG, antigen flowed over
T1 sequence: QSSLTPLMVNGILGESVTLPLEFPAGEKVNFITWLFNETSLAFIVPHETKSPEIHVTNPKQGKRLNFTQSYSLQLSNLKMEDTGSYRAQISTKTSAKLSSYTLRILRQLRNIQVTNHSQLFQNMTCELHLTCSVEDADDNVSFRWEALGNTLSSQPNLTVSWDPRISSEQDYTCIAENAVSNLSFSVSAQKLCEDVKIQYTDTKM
Description: Flow cells 2, 3 and 4 of the CM5 chip were coated with maximum amounts 500 RU of goat anti-human IgG. Test Ab were captured on flow cells 2, 3 and 4. Flow cell 1 was kept blank and used for reference subtraction. Antigen was flowed over the chip. Binding of antigen to the antibodies was monitored in real time. From the observed kₒₙ and koff, KD was determined.

[2] = target: T2, human SLAMF6 expressed on the cell surface (Raji cells, human PBMCs, T cells) (human, UniProt Q96DU3 22-332); assay: flow cytometry on human PBMCs pre-blocked with 300 nM SLAMF6 ECD-mIgG2a Fc fusion protein, goat anti-human IgG-RPE secondary antibody
T2 construct: Endogenous SLAMF6 on human cells; also called NTB-A; CD352
T2 sequence: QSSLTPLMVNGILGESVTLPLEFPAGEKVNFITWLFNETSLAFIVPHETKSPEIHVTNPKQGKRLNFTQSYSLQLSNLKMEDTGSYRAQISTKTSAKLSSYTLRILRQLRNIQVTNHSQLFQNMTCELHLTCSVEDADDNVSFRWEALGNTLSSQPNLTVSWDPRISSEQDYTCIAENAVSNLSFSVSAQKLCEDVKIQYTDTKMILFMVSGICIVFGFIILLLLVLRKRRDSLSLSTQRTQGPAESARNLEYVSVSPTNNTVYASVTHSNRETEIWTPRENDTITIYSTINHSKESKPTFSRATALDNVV
Description: Cryopreserved human PBMCs were thawed and washed once by suspension in FACS buffer (DPBS with 2% FCS) followed by centrifugation for 5 minutes at 1200 rpm to pellet cells and discarding of supernatant (same method used for subsequent washes). The cells were dispensed into a 96-well assay plate at 100,000 cells per well in FACS buffer before being washed once more. Cells were then blocked with SLAMF6 ECD-mIgG2a Fc fusion protein at 100 nM or 300 nM for 1 hr for SLAMF6 receptor blocking in 100 μl FACS buffer on ice for 1 hour before being washed. Humanized Hu_1B3 antibody or human IgG1 Isotype control at top concentration of 10 nM and a titration by serial dilution of 1 in 3, was then added to the blocked PBMCs and the cells were incubated for 1 hr on ice before being washed twice. The secondary antibody, goat anti-human-IgG-RPE (Southern Biotech, Ref: 2040-05) at a concentration of 1 μg/mL in FACS buffer, was then applied to the treated cells for 30 minutes on ice. […] Mean fluorescence intensity for the secondary antibody was determined for each sample using an Attune NxT Flow Cytometer (ThermoFischer Scientific) in a 96-well plate format according to industry standard protocols, and the raw data was analyzed using FlowJo analysis software.

[3] = target: T2, human SLAMF6 expressed on the cell …; assay: cell-based or functional assay
[4] = target: T2, human SLAMF6 expressed on the cell …; assay: flow cytometry on SLAMF6-expressing Raji cells, goat anti-mouse secondary antibody
Description: […] Raji cells were placed in each well of a 96 well plate and washed 1× with FACS buffer (DPBS, 2% FBS). The cells were pelleted by spinning for 5 min at 1200 rpm. The pellet was washed 1× with FACS buffer (DPBS, 2% FBS) and again pelleted by spinning for 5 min at 1200 rpm and resuspended in FACS buffer. The test antibody were diluted to 30 nM/l in FACS buffer and increasing amounts as shown in FIG. 4 added to each well which was incubated for 30 min on ice. The cells were then washed 1× with FACS buffer (DPBS, 2% FBS) and pelleted, washed and resuspended in FACS buffer. Secondary goat-anti-mouse antibody was diluted to 1 μg·ml and 100 μl added to each well the plate was incubated for 30 min on ice then washed 1× with FACS buffer (DPBS, 2% FBS). The cells were pelleted and resuspended in 200 ul FACS buffer. Samples were read using the Guava Easycyte Plus HT flow cytometer and results analysed using the Guava Cytosoft software suite.

Row | Binder | Ka [1] | Kd [1] | koff [1] | kon [1] | EC50 (read off the curve) [2] | Granzyme B release from activated T cells (plate-coated antibody plus OKT3, ELISA), EC50 [3] | upregulation of intracellular perforin in CD8+ T cells (flow cytometry), EC50 [3] | EC50 (read off the curve) [4]
1 | humanised antibody Hu_1B3 (antibody, human IgG1, kappa, L234A L235A, V domains shown, It was captured or detected with anti-human IgG and compared with a human IgG1 isotype control; also called humanised 1B3 antibody; humanized Hu_1B3 antibody) VH: QVQLVQSGAEVKKPGASVKVSCKASGYAFTNYLIEWVRQAPGQGLEWIGVINPGSGGTNYNEKFQGRVTLTADKSISTAYMELSRLRSDDTAVYYCARRGWDYFDYWGQGTLVTVSS VL: DIQLTQSPSSLSASVGDRVTITCQASQDVSYIYWYQQKPGKAPKPWIYRTSNLATGVPSRFSGSGSGTDYTFTISSLQPEDIATYYCQQWDNNPYTFGQGTKLEIKR | 5.8e+08 M⁻¹ | 1.72 nM | 0.000932 s⁻¹ | 541000 M⁻¹ s⁻¹ | ~0.4 nM | 0.51 µg/mL | 0.44 µg/mL | 
2 | parental murine 1B3 antibody (antibody, V domains shown, also called antibody 1B3; mouse 1B3) VH: QVQLKQSGAELVRPGTSVKVSCKASGYAFTNYLIEWVKQRPGQGLEWIGVINPGSGGTNYNEKFKDKATLTADKSSNTAYMQLSSLTSDDSAVYFCARRGWDYFDYWGQGTTLTVSS VL: QIVLTQSPALMSTSPGEKVTMTCSASSSVSYIYWFQQKPGSSPKPWIYRTSNLASGVPARFSGSGSGTSYSLTISSMEAEDAATYYCQQWDNNPYTFGGGTKLEIK |  |  |  |  |  |  |  | ~0.2 nM
